± gives the uncertainty stated by the source.
Experiment: protein stability index of a GFP-peptide fusion (yeast GPS) (PSI 1-4); higher = more stable; sorted into four equal gates, so the index is relative within each strain
Summary of the method: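 Tiled 17-residue yeast protein peptides were fused downstream of GFP in a plasmid that also expresses Cherry, and the pooled library was carried in yeast. Mid-log cultures in leucine-free medium were sorted into four equal gates by GFP/Cherry fluorescence ratio, and plasmids from each gate were PCR-amplified and Illumina-sequenced, with reads assigned to strains by barcodes. The protein stability index for each peptide was each gate's read frequency times its gate number, summed.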

Row | Sequence | protein stability index (doa10∆) | protein stability index (pdr5∆) | protein stability index (ubr1∆) | protein stability index (san1∆)
1 | SKKLNLKIHQSHLVVPY [YMR129W/POM152] | 2.32 ± 0.15 | 1.95 ± 0.086 | 2.88 ± 0.14 | 
2 | SKKNRPTLQVGDLVYAR [RRP40] | 2.36 ± 0.1 | 2.48 ± 0.09 | 2.46 ± 0.043 | 1.87 ± 0.12
3 | SKKQRNNGSKDHGDGIL [RPN9] | 3.37 ± 0.13 | 2.85 ± 0.097 | 2.78 ± 0.053 | 3.27 ± 0.057
4 | SKKTGQFNAQGVRDINC [POP1] |  |  |  | 3.16 ± 0.12
5 | SKKTSPKATSSAGAVFK [YOR098C/NUP1] | 2.7 ± 0.12 | 2.42 ± 0.086 | 2.61 ± 0.046 | 2.54 ± 0.085
6 | SKLGKNLQTVHFGHCFN [GRR1] | 1.42 ± 0.092 |  | 2.25 ± 0.11 | 2.68 ± 0.11
7 | SKNAQFICTTFRTDMLQ [SMC3] | 2.11 ± 0.074 | 1.49 ± 0.075 | 1.05 ± 0.073 | 1.5 ± 0.13
8 | SKPVLIVGQKNLNRAFN [DIS3] | 3.08 ± 0.11 | 2.8 ± 0.1 | 2.8 ± 0.088 | 2.77 ± 0.055
9 | SKQDLIHSLIPVAKWFV [SIN4] | 2.4 ± 0.076 | 2.99 ± 0.054 | 2.78 ± 0.08 | 2.9 ± 0.061
10 | SKQQAKGAFQKVAATSR [RPL24A] | 2.52 ± 0.043 | 2.99 ± 0.045 | 2.8 ± 0.038 | 2.84 ± 0.036
11 | SKRWAQRTLSKSFYSTA [CYT1] | 1.69 ± 0.052 | 2.32 ± 0.054 | 2.22 ± 0.06 | 2.19 ± 0.063
12 | SKRYIPSVNDFVIGVII [RRP40] | 2.4 ± 0.054 | 2.66 ± 0.056 | 2.73 ± 0.054 | 2.17 ± 0.078
13 | SKSNLIHNYDSKKSTIT [RGR1] | 3.03 ± 0.067 | 3.03 ± 0.054 | 3.11 ± 0.038 | 3.05 ± 0.04
14 | SKSVPTPSLPIAPPVAP [SNF5] | 2.74 ± 0.057 | 2.81 ± 0.061 | 2.55 ± 0.061 | 3.1 ± 0.045
15 | SLAKSSALWSSRKGIAF [ECM29] | 1.9 ± 0.069 | 1.88 ± 0.14 | 1.59 ± 0.15 | 1.83 ± 0.12
16 | SLASCLRSTEYSKSFEQ [POP1] | 2.58 ± 0.11 | 2.88 ± 0.13 | 2.76 ± 0.12 | 2.89 ± 0.083
17 | SLDDNSTSLEKQINSIK [YJL041W/NSP1] | 2.78 ± 0.079 | 3.08 ± 0.065 | 2.96 ± 0.048 | 2.97 ± 0.045
18 | SLDEILLPANLLSLNSV [SRP68] | 3.13 ± 0.058 | 3.15 ± 0.058 | 3.08 ± 0.031 | 3.14 ± 0.05
19 | SLDLNNLELGGLNMDFL [PGD1] | 3.24 ± 0.098 | 3.19 ± 0.099 | 2.74 ± 0.11 | 3.37 ± 0.082
20 | SLELQSFQKIPLSRINE [YML103C/NUP188] | 2.67 ± 0.12 | 2.82 ± 0.11 | 2.88 ± 0.12 | 2.94 ± 0.07
21 | SLFELIVPIFQLISAVL [YJL039C/NUP192] | 1.86 ± 0.068 | 1.75 ± 0.051 | 1.85 ± 0.037 | 1.7 ± 0.097
22 | SLILKESGSTPISISNA [YAR002W/NUP60] | 1.2 ± 0.085 | 1.62 ± 0.1 | 1.23 ± 0.1 | 1.45 ± 0.11
23 | SLKNTDALLNSTTEHIN [YJL039C/NUP192] | 1.9 ± 0.15 | 2.49 ± 0.094 | 2.42 ± 0.16 | 2.13 ± 0.12
24 | SLLDAEEERRKKRESGV [SNF2] | 3.47 ± 0.08 | 3.32 ± 0.1 | 3.47 ± 0.047 | 
25 | SLLGGFDENIARDIISH [PCI8] | 2.83 ± 0.058 | 2.83 ± 0.048 | 2.82 ± 0.046 | 2.71 ± 0.044
26 | SLLLSSVKESTGMSSMS [SRB4] | 1.96 ± 0.081 | 2.21 ± 0.078 | 1.22 ± 0.13 | 1.57 ± 0.21
27 | SLQDRSSLVRRNSVKLL [YCS4] | 2.02 ± 0.055 | 2.12 ± 0.049 | 1.56 ± 0.027 | 1.94 ± 0.062

Row | Sequence | protein stability index (doa10∆) | protein stability index (pdr5∆) | protein stability index (ubr1∆) | protein stability index (san1∆)
28 | SLQRSKSSFVKESAVIS [SMC1] | 2.04 ± 0.11 | 2.27 ± 0.047 | 2.29 ± 0.039 | 2.17 ± 0.067
29 | SLQYINIRGNTIRQIIL [SMD1] | 3.15 ± 0.097 | 3.26 ± 0.085 | 2.94 ± 0.065 | 2.73 ± 0.1
30 | SLRILAKLSERSNGSVA [YJL039C/NUP192] | 2.5 ± 0.048 | 2.27 ± 0.04 | 2.42 ± 0.043 | 1.93 ± 0.067
31 | SLSDEVMRNEIRITSLQ [SIR4] | 2.92 ± 0.065 | 2.48 ± 0.064 | 2.52 ± 0.077 | 2.81 ± 0.067
32 | SLSKISQAFDIVAALPI [RPP1] | 3.18 ± 0.12 | 3.46 ± 0.15 |  | 2.97 ± 0.13
33 | SLSNPNSTATMQHNPLA [PGD1] | 2.86 ± 0.04 | 3.1 ± 0.039 | 2.967 ± 0.029 | 2.96 ± 0.034
34 | SLTAEAMTAAEHGLHAP [CYT1] | 2.82 ± 0.091 | 3.25 ± 0.073 | 3.1 ± 0.045 | 2.94 ± 0.057
35 | SLTPTQSDSAKVEIKKV [PRP28] | 3.01 ± 0.12 | 3.39 ± 0.069 | 3.1 ± 0.06 | 2.92 ± 0.093
36 | SLTTVWAEHLSDEVKRR [RPL3] | 2.87 ± 0.13 | 2.85 ± 0.18 | 3 ± 0.18 | 
37 | SLVNSYIIDSPQPSSIN [COB] | 1.51 ± 0.085 | 1.59 ± 0.08 | 1.32 ± 0.081 | 1.64 ± 0.15
38 | SLYPPPPPYVKFFTQSN [MED7] | 1.97 ± 0.043 | 2.17 ± 0.048 | 2.35 ± 0.031 | 2.16 ± 0.072
39 | SMFSGLDSTGFDSTAFN [MED2] | 3.05 ± 0.044 | 3.17 ± 0.042 | 3.104 ± 0.03 | 3.19 ± 0.034
40 | SMINNSNQAVGQTWNFP [SRB8] | 2.8 ± 0.17 | 3.01 ± 0.16 | 2.74 ± 0.12 | 3.15 ± 0.13
41 | SMKANTSTNPNGLGTSH [ARP7] | 3.22 ± 0.093 | 3.41 ± 0.098 | 3.27 ± 0.075 | 2.95 ± 0.078
42 | SNDFEEGSTIRYLAVTL [YMR129W/POM152] | 2.06 ± 0.05 | 2.28 ± 0.049 | 2.26 ± 0.053 | 2.12 ± 0.062
43 | SNDKVVEWINPSRRERR [ISW2] |  |  | 3.34 ± 0.15 | 
44 | SNDTTAFNDSCVNLSLF [SRB8] | 3.07 ± 0.065 | 2.92 ± 0.069 | 2.34 ± 0.035 | 3.13 ± 0.06
45 | SNFTSIIGPNGSGKSNM [SMC1] | 3.33 ± 0.13 | 3.04 ± 0.15 | 3.46 ± 0.093 | 3.37 ± 0.12
46 | SNIELAFSSVEHIIRDV [COB] | 3 ± 0.087 | 2.78 ± 0.1 | 2.73 ± 0.11 | 2.79 ± 0.079
47 | SNIPNLLRNLESKMRQQ [YDL088C/ASM4] | 3.15 ± 0.11 | 2.84 ± 0.086 | 3.07 ± 0.062 | 2.97 ± 0.12
48 | SNIQRNVLFLRLFNNVK [SRP72] | 2.24 ± 0.059 | 2.23 ± 0.054 | 1.83 ± 0.05 | 1.49 ± 0.076
49 | SNTNDNISIITLELESF [RGR1] | 2.54 ± 0.075 | 2.39 ± 0.081 | 2.32 ± 0.11 | 2.25 ± 0.098
50 | SNTTTQIQFTPLIKKIK [SMC3] | 2.2 ± 0.088 | 2.46 ± 0.045 | 2.37 ± 0.07 | 2.71 ± 0.095
51 | SNVNSDIYFKLKKLEKE [RPT3] | 3.22 ± 0.09 | 2.73 ± 0.09 | 3.03 ± 0.072 | 2.93 ± 0.086
52 | SNYAASNSMDRSSSASN [SWI1] | 2.79 ± 0.14 | 2.7 ± 0.089 | 2.84 ± 0.093 | 2.88 ± 0.07
53 | SPELKADLRPLQIKSIR [RPS7B] | 2.42 ± 0.14 | 2.9 ± 0.13 | 2.98 ± 0.091 | 2.67 ± 0.13
